Assay results taken from the DeepSol protein solubility set.

Assay: soluble on expression in E. coli; label from the status in PepcDB or PDB records
With “GPHVKSGLQIKKNAIIDDYKVTSQVLGLGINGKVLQIFNKRTQEKFALKMLQDCPKARREVELHWRASQCPHIVRIVDVYENLYAGRKCLLIVMECLDGGELFSRIQDRGDQAFTEREASEIMKSIGEAIQYLHSINIAHRDVKPENLLYTSKRPNAILKLTDFGFAKETTGEKYDKSCDMWSLGVIMYILLCGYPPFYSNHGLAISPGMKTRIRMGQYEFPNPEWSEVSEEVKMLIRNLLKTEPTQRMTITEFMNHPWIMQSTKVPQTPLHTSRVLKEDKERWEDVKEEMTSALATMR” the “soluble on expression in E. coli” value was “soluble”. In the case of “GPLGSMSGPVPSRARVYTDVNTHRPREYWDYESHVVEWGNQDDYQLVRKLGRGKYSEVFEAINITNNEKVVVKILKPVKKKKIKREIKILENLRGGPNIITLADIVKDPVSRTPALVFEHVNNTDFKQLYQTLTDYDIRFYMYEILKALDYCHSMGIMHRDVKPHNVMIDHEHRKLRLIDWGLAEFYHPGQEYNVRVASRYFKGPELLVDYQMYDYSLDMWSLGCMLASMIFRKEPFFHGHDNYDQLVRIAKVLGTEDLYDYIDKYNIELDPRFNDILGRHSRKRWERFVHSENQHLVSPEALDFLDKLLRYDHQSRLTAREAMEHPYFYTVVKDQARMG”, the “soluble on expression in E. coli” value is reported as “soluble”. For “GPLGSNMDAAEVEFLAEKELVTIIPNFSLDKIYLIGGDLGPFNPGLPVEVPLWLAINLKQRQKCRLLPPEWMDVEKLEKMRDHERKEETFTPMPSPYYMELTKLLLNHASDNIPKADEIRTLVKDMWDTRIAKLRVSADSFVRQQEAHAKLDNLTLMEINTSGTFLTQALNHMYKLRTNLQPLESTQSQDF”, the “soluble on expression in E. coli” value was “soluble”. For “GPMATESPNSVQKIVVHLRATGGAPILKQSKFKVSGSDKFANVIDFLRRQLHSDSLFVYVNSAFSPNPDESVIDLYNNFGFDGKLVVNYACSMAWG”, the “soluble on expression in E. coli” value was “soluble”. With “GPQKRCLFVCRHGERMDVVFGKYWLSQCFDAKGRYIRTNLNMPHSLPQRSGGFRDYEKDAPITVFGCMQARLVGEALLESNTVIDHVYCSPSLRCVQTAHNILKGLQQDNHLKIRVEPGLFEWTKWVAGSTLPAWIPPSELAAANLSVDTTYRPHIPVSKLAISESYDTYINRSFQVTKEIISECKSKGNNILIVAHASSLEACTCQLQGLSPQNSKDFVQMVRKIPYLGFCSCEELGETGIWQLTDPPILPLTHGPTGGFNWRETLLQE” the “soluble on expression in E. coli” value was “soluble”. For “GPVDPAEYDAVWSAWRRAAPAEESRGRAAVVQKMRACLNNGNAVLNVGESGLTTLPDCLPAHITTLVIPDNNLTSLPALPPELRTLEVSGNQLTSLPVLPPGLLELSIFSNPLTHLPALPSGLCKLWIFGNQLTSLPVLPPGLQELSVSDNQLASLPALPSELCKLWAYNNQLTSLPMLPSGLQELSVSDNQLASLPTLPSELYKLWAYNNRLTSLPALPSGLKELIVSGNRLTSLPVLPSELKELMVSGNRLTSLPMLPSGLLSLSVYRNQLTRLPESLIHLSSETTVNLEGNPLSERTLQALREITSAPGYSGPIIRFDMAGASAPRETRALHLAAADWLVPAREGEPAPADRWHMFGQEDNADAFSLFLDRLSETENFIKDAGFKAQISSWLAQLAEDEALRANTFAMATEATSSCEDRVTFFLHQMKNVQLVHNAEKGQYDNDLAALVATGREMFRLGKLEQIAREKVRTLALVDEIEVWLAYQNKLKKSLGLTSVTSEMRFFDVSGVTVTDLQDAELQVKAAEKSEFREWILQWGPLHRVLERKAPERVNALREKQISDYEETYRMLSDTELRPSGLVGNTDAERTIGARAMESAKKTFLDGLRPLVEEMLGSYLNV”, the “soluble on expression in E. coli” value was “soluble”. For “GQDSEVLLDGVAKLSSHNNVIEDAIEGVDLTLKGKSEPNKPPAEIGVEYDRQSVRSDIENFVSAYNSFYQTSQALSSVDPTTGQKGPLAGDSTVRSADSRLKAVFSSRIDQAPENLKSLTEFGITTTRQGTLEINYDMLDRQLNNNFNELEKFFGGNTGFAKRIEDAIHGITGITGSIRTREKSLTEQNYRLNDDQAALDRRMEGLEKRTHAKFTAMQDATGKMQGQLGALMSALG”, the “soluble on expression in E. coli” value was “not soluble”. In the case of “GRHLFVLEREAKLKDYLATADITRVEKGDTKFGVVTAGTCYPYLREVLPNATVLKLGASWPLPDTLLREFCASVDQVFVVEELEPIIEKEVASLGIKVEGKRLFPRAGEFSPEVVRAGFVQAGLLPAPPSYNAWVPEPVVRPPVLCAGCPHTSSFLAVRASGARVAGDIGCYTLAVLDPLRGIDTCVAMGSSIGNAIGMAKAGEAKPVVATIGDSTFLHAGLPALIDAVYNQANIAVVLLDNHITAMTGGQEH”, the “soluble on expression in E. coli” value is reported as “not soluble”. For “GSAHRFPALTQEQKKELSEIAQSIVANGKGILAADESVGTMGNRLQRIKVENTEENRRQFREILFSVDSSINQSIGGVILFHETLYQKDSQGKLFRNILKEKGIVVGIKLDQGGAPLAGTNKETTIQGLDGLSERCAQYKKDGVDFGKWRPVLRIADQCPSSLAIQENANALARYASICQQNGLVPIVEPEVIPDGDHDLEHCQYVTEKVLAAVYKALNDHHVYLEGTLLKPNMVTAGHACTKKYTPEQVAMATVTALHRTVPAAVPGICFLSGGMSEEDATLNLNAINLCPLPKPWKLSFSYGRALQASALAAWGGKAANKEATQEAFMKRAMANCQAAKGQYVHTGSSGAASTQSLFTACYTY”, the “soluble on expression in E. coli” value was “soluble”. In the case of “GSASAQSRTLAGGIHATDLNDKSVQRALDFAISEYNKVINKDEYYSRPLQVMAAYQQIVGGVNYYFNVKFGRTTCTKSQPNLDNCPFNDQPKLKEEEFCSFQINEVPWEDKISILNYKCRKV”, the “soluble on expression in E. coli” value is reported as “soluble”. For “GSDDLVGVSVRPKVPLRTMSYKLAIDMSHFIKEKGGLEGIYYSARRHRILDIYLEKEEGIIPDWQDYTSGPGIRYPKTFGWLWKLVPVNVSDEAQEDEEHYLMHPAQTSQWDDPWGEVLAWKFDPTLAYTYEAYVRYPEEFGS”, the “soluble on expression in E. coli” value was “soluble”. For “GSDELKWNKGYSLPNLLEVTDQQKELSQWTLGDKVKLEEGRFVLTPGKNTKGSLWLKPEYSIKDAMTIEWTFRSFGFRGSTKGGLAFWLKQGNEGDSTELFGGSSKKFNGLMILLRLDDKLGESVTAYLNDGTKDLDIESSPYFASCLFQYQDSMVPSTLRLTYNPLDNHLLKLQMDNRVCFQTRKVKFMGSSPFRIGTSAINDASKESFEILKMKLYDGVIEDSL”, the “soluble on expression in E. coli” value was “soluble”. With “GSDSLIRDLSGLSQKMVQTLLEQIRSNYDDYLTFSNTYTDEENETLINLEKTQSDLQKFMTQLDHLIKDDISNTQEIIKDVLEYLKKLDEIYGSLRNHSQLTEALSLGKRLSKSLHEMCGIEPLEEEICSGLIEQLYKLITASRRILESCADSNSPYIHHLRNDYQDLLQEFQISLKILTEKCLENPSSLQNLSLTLVSIIKTA” the “soluble on expression in E. coli” value was “soluble”. In the case of “GSEELLDLFNRQVTQEFTASQVYLSASIWFDQNDWEGMAAYMLAESAEEREHGLGFVDFANKRNIPIELQAVPAPVSCAEWSSPEDVWQSILELEQANTRSLLNLAEAASTCHDFAVMAFLNPFHLQQVNEEDKIGSILAKVTDENRTPGLLRSLDVVSFLGPCLFRS”, the “soluble on expression in E. coli” value is reported as “soluble”. With “GSFTGQGDFHLLDHRGRARCKADFRGQWVLMYFGFTHCPDICPDELEKLVQVVRQLEAEPGLPPVQPVFITVDPERDDVEAMARYVQDFHPRLLGLTGSTKQVAQASHSYRVYYNAGPKDEDQDYIVDHSIAIYLLNPDGLFTDYYGRSRSAEQISDSVRRHMAAFRSVLS” the “soluble on expression in E. coli” value was “soluble”. For “GSHMASMTGGQQMGRGSENLYFQGNPILAGLGFSLPKRQVSNHDLVGRINTSDEFIVERTGVRTRYHVEPEQAVSALMVPAARQAIEAAGLLPEDIDLLLVNTLSPDHHDPSQACLIQPLLGLRHIPVLDIRAQCSGLLYGLQMARGQILAGLARHVLVVCGEVLSKRMDCSDRGRNLSILLGDGAGAVVVSAGESLEDGLLDLRLGADGNYFDLLMTAAPGSASPTFLDENVLREGGGEFLMRGRPMFEHASQTLVRIAGEMLAAHELTLDDIDHVICHQPNLRILDAVQEQLGIPQHKFAVTVDRLGNMASASTPVTLAMFWPDIQPGQRVLVLTYGSGATWGAALYRKPEEVNRPC”, the “soluble on expression in E. coli” value was “soluble”. In the case of “GSHMGSLDETTYERLAEETLDSLAEFFEDLADKPYTFEDYDVSFGSGVLTVKLGGDLGTYVINKQTPNKQIWLSSPSSGPKRYDWTGKNWVYSHDGVSLHELLAAELTKALKTKLDLSSLAYSGKDA”, the “soluble on expression in E. coli” value is reported as “soluble”. In the case of “GSHMKNPYSNQIEREELILKYLPLVKAIATNIKKHLPEDVDIRDLISYGVIGLIKAVDNLSTENPKRAEAYIKLRIKGAIYDYLRSLDFGSRQVREKERRIKEVVEKLKEKLGREPTDEEVAKELGISTEELFKTLDKINFSYILSLEEVFRDFARDYSELIPSSTNVEEEVIKRELTEKVKEAVSKLPEREKLVIQLIFYEELPAKEVAKILETSVSRVSQLKAKALERLREMLSNPL”, the “soluble on expression in E. coli” value is reported as “soluble”.
